Target: T1, Methylobacterium extorquens (Mex) PqqE (Methylobacterium extorquens, UniProt P71517 1-384)
T1 sequence (looked up): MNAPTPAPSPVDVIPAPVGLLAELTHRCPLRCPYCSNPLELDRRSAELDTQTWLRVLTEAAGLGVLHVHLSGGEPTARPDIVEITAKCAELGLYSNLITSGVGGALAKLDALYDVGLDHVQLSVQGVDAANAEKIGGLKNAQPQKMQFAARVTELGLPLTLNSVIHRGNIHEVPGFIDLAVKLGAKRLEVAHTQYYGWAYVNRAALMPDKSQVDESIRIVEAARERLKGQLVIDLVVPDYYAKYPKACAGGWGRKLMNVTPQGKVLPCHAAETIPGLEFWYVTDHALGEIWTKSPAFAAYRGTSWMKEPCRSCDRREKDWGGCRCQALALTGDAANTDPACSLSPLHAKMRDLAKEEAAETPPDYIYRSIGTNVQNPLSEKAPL
Test: native MS

stoichiometry N: 1
B1: Methylobacterium extorquens (Mex) PqqD (domain or fragment, Methylobacterium extorquens AM1, UniProt Q49150 280-372, looked up)
chain: EPTAFSGSDVPRLPRGVRLRFDEVRNKHVLLAPERTFDLDDNAVAVLKLVDGRNTVSQIAQILGQTYDADPAIIEADILPMLAGLAQKRVLER

Reference: PMC6287933 (Methods in enzymology, 2018)
